In patent US20130224191A1, “NOTUM PROTEIN MODULATORS AND METHODS OF USE” (priority 2010, published 2013):
Entries after “also recorded” stand apart in the source; their conditions may differ.

What was measured:
murine Notum-His = target: T1, murine Notum-His (Mus musculus, UniProt Q8R116); test: Neutralization of murine Notum in 293.TCF assay; format: cell-based
T1 construct: His tag; made in house
T1 sequence (Q8R116 20-503): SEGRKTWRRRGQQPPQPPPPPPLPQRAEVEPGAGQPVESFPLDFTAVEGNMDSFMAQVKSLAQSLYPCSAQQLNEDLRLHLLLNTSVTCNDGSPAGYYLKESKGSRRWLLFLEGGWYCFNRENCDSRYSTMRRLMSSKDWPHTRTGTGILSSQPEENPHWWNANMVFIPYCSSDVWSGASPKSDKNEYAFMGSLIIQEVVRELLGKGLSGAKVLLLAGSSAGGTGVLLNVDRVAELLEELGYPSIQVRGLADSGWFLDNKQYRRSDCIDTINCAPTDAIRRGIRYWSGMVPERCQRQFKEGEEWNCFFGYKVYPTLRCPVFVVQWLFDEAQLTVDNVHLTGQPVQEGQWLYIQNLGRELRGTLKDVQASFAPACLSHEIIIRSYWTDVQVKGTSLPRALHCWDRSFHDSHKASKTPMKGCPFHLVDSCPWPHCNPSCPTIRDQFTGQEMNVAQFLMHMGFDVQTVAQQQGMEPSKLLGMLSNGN
Method: Using the 293.TCF cells, purified SC2.D2.2 and SC2.A106 antibodies were tested for their ability to neutralize murine Notum-His or macaque Notum-Fc activity as follows. 2.5×10^4 293.TCF cells were plated per well of a 96-well tissue culture plate in 50 μL of serum-free medium. After 23 hours of serum starvation, 10 μL of DMEM+0.2% FBS containing the Notum proteins at various concentrations were mixed with 15 μL of purified antibody at various concentrations, and allowed to incubate for 5 minutes at room temperature. The 25 μL antibody/Notum mixture was then added to the 293.TCF cells. After 1 hour, 25 μL of Wnt3A or control L-cell CM were added to each well. Eighteen hours after addition of CM, 100 μL of One-Glo solution (ProMega Corp.) was added to each well. The contents of each well were mixed thoroughly to lyse the cells, 100 μL of lysate transferred to black 96-well plates, and the luminescence read after 5 minutes.

hNotum = target: T2, hNotum (Homo sapiens, UniProt Q6P988); test: Inhibition of hNotum esterase activity; format: biochemical; conditions: preincubation with hNotum
T2 construct: 8x-His; Strep-tag II; IgK signal peptide/leader of the pSEC-CAG vector (N); made in house; host or cells: HEK293T (adherent) / suspension 293 cells
T2 sequence (Q6P988 20-496): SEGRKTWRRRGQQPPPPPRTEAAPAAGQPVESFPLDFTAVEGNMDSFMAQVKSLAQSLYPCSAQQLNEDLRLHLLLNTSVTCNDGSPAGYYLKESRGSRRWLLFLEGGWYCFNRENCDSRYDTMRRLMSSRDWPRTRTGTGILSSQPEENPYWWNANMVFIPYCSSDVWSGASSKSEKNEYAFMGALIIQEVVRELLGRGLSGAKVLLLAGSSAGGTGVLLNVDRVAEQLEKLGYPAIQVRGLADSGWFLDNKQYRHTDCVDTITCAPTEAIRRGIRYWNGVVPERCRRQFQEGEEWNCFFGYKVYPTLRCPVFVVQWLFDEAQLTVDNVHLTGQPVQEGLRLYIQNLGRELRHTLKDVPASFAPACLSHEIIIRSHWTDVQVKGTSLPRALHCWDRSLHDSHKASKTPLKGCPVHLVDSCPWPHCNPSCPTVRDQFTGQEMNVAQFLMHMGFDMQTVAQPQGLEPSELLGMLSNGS
Method: Briefly, PNPA or PNPB were dissolved/diluted in isopropanol to final concentrations of 10 mM. These substrate solutions were diluted 1:10 into assay buffer (0.1% gum arabic, 2.3 mg/mL sodium dexoycholate, 1×PBS) and incubated with defined amounts of hNotum enzyme, and the enzymatic release of the chromophore p-nitrophenol monitored by absorbance measurements at 405 nm.
The results presented immediately above indicate that the measured esterase activity may be used to provide an assay that allows for the further characterization of the disclosed Notum modulators. […] As may be seen in FIG. 18A an increase in hNotum levels increases measured enzymatic activity even, to some extent, in the case where the SC2.D2.2 antibody is present. Conversely, FIG. 18B provides a dose response curve of measured enzymatic activity where the amount of hNotum is fixed at 1 μg/mL and the concentration of SC2.D2.2 is varied. […] In contrast a control antibody (MOPC) has no effect on the esterase activity of Notum (data not shown).

[1] = target: T3, human Notum (recombinant or endogenous; construct not specified at the place of use) (human, UniProt Q6P988 20-496); test: SPR (Biacore), antigen at 12.5 to 0.78125 nM, 1:1 Langmuir binding model
T3 construct: also called hNotum; human Notum protein
T3 sequence: T2 sequence (Q6P988 20-496)
Method: Binding characteristics for antibodies were assessed using antibody capture Biacore technology. Disassociation constant values Kd (koff/kₒₙ) were determined for selected antibodies. A Biacore 3000 (GE Healthcare) biosensor was used for surface plasmon resonance (SPR) kinetic measurements. Using purified antibody quantitative koff constants were derived through capture the antibody on the sensor surface. Anti-mouse IgG was immobilized on the CM5 surface of sensor chip using standard amine coupling chemistry. Each mAb was captured onto an anti-IgG surface before the antigen was injected over the immobilized antibody allowing the antibody-antigen interaction to be analyzed.
Three methods were used to characterize the affinity of humanized SC2.D2.2 relative to its analogous mAb with the murine variable region. First, binding signal was measured for a fixed amount of antibody probed against serial dilutions of antigen in an ELISA format. Measured signal levels were substantially similar (data not shown). Second, the affinity of murine SC2.D2.2 was measured by Biacore using surface plasmon resonance (SPR) to provide the results set forth in FIG. 32A. […] Long off-rates for this interaction made accurate determination of affinity through kinetics difficult. […]

B1: SC2.D2.2 (antibody, V domains shown)
VH: DVQLVESGGGLVQPGGSRKISCAASGFTFSSYGMHWVRQAPEKGLEWVAYISSSTVTTYYADTVKGRFTISRDNANNTLFLQMTSLRSEDTAMYYCSRQNWDGGYFDVWGAGTTVTVSS
VL: DIVLTQSLASLAVSLGQRATISCRASKSVSSSGYSYMHWYQQKPGQPPKLLIYLASNLESGVPARFSGSGSGTDFTLNIHPVEEEDAATYYCQHSRALPLTFGAGTKLELKR
notes: also called murine SC2.D2.2
inhibition of murine Notum activity (murine Notum-His): did not inhibit; also recorded: without inhibiting murine or macaque versions of the protein
effect on esterase activity of hNotum (hNotum): greatly reduced esterase activity
Kd [1]: < 0.1 nM
